Laboratory results from doi:10.1101/693663 (bioRxiv, 2019).
Residue numbers refer to the chain shown, from its start. Names may count otherwise. One block for each molecule: values may come before it.

Key:
[1] = molecular target: ASK1(1290–1374), C-terminal SAM domain of ASK1 (human) (UniProt Q99683); assay: SAXS
[2] = molecular target: ASK2(1216–1288), C-terminal SAM domain of ASK2 (human) (UniProt O95382); assay: AUC
GST-ASK2 SAM domain = molecular target: T1, GST-ASK2 SAM domain (human, UniProt O95382 1216-1288); assay: pull-down
T1 sequence (looked up): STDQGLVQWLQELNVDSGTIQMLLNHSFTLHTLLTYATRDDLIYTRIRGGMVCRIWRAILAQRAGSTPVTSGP

SAXS = molecular target: the molecule itself; assay: SAXS
SEC = molecular target: the molecule itself; assay: SEC

B2: ASK3 SAM domain V1262N (domain or fragment, human, UniProt Q6ZN16 1241-1313, looked up)
chain: DKELIDWLRLQGADAKTIEKINEEGYTLSDILNEITKEDLRYLRLRGGLLCRLWSAVSQYRRAQEASETKDKA
binding result (SEC): binds

B3: ASK3 SAM domain Q1304A (domain or fragment, human, UniProt Q6ZN16 1241-1313, looked up)
chain: B2 chain with N22V, Q64A
binding result (SEC): binds

B4: ASK3 SAM domain K1242E (domain or fragment, human, UniProt Q6ZN16 1241-1313, looked up)
chain: B2 chain with K2E, N22V
binding result (SEC): binds

More lines, main results first:

stoichiometry N [1]: 2
Molecule: ASK1(1290–1374), C-terminal SAM domain of ASK1 (from UniProt Q99683 1290-1374) (domain or fragment)

stoichiometry N [2]: 2
Molecule: ASK2(1216–1288), C-terminal SAM domain of ASK2 (from UniProt O95382 1216-1288) (domain or fragment)

binding result (GST-ASK2 SAM domain): binds
B1: ASK3(1241–1313), C-terminal SAM domain of ASK3 (domain or fragment, human, UniProt Q6ZN16 1241-1313, looked up)
chain: B2 chain with N22V
stoichiometry N (SAXS): 6
